Assay results reported in publication PMC9430671.

Legend:
[1] = target: LysP7951 full-length product (FLP), produced from the wild-type lysP7951 gene (Streptococcus thermophilus phage P7951); experiment: native MS; purified LysP7951 complex (co-produced, co-purified) in 150 mM ammonium acetate, about 10 μM, nano-ESI Q-TOF, positive mode, collision energy 0 V (15 and 100 V for dissociation)
[2] = target: LysP7951 full-length product (FLP), produced from the wild-type lysP7951 gene (Streptococcus thermophilus phage P7951); experiment: SEC; analytical gel filtration (Superose 6 10/300 GL, calibrated) of single purified preparations; protein buffer (50 mM HEPES, 500 mM NaCl, 1% glycerol, pH 7), 0.4 mL/min; apparent molecular masses from elution volumes
[3] = target: LysP7951_(209-310) (Streptococcus thermophilus phage P7951); experiment: SAXS; LysP7951 CTP at 1.00, 1.85, 2.70 mg/mL in protein buffer, 20°C, BM29 beamline ESRF; molecular mass estimated from the scattering data
[4] = target: LysP7951_(209-310) (Streptococcus thermophilus phage P7951); experiment: SEC; analytical gel filtration (Superose 6 10/300 GL, calibrated) of single purified preparations; protein buffer (50 mM HEPES, 500 mM NaCl, 1% glycerol, pH 7), 0.4 mL/min; apparent molecular masses from elution volumes

Substance: LysP7951 C-terminal product (CTP), produced from the internal translation start site of the wild-type lysP7951 gene (domain or fragment)
- stoichiometry N (CTP subunits per FLP) [1]: 5
- stoichiometry N (CTP subunits per FLP) [2]: 4

Substance: LysP7951_(209-310) (domain or fragment)
- stoichiometry N [3]: 6 to 7 subunits
- stoichiometry N [4]: 7 subunits
